These results are taken from patent US20250074943A1 (Amgen, published 2025).

Bridge positions count the residues as written; N and C are the ends. Primed or numbered codes have the meaning given here. Ends that are not written are not given here. Ttds″ = trioxatridecan-succinamic acid linker

The labels stand for the following.
T1: recombinant DLL3 ectodomain (rhDLL3-Fc) (human, UniProt Q9NYJ7 27-492, biotinylated (NHS-LC-LC-biotin) in the BLI and SPR assays)
T1 construct: also called rDLL3-Fc; recombinant human DLL3 (rDLL3); not shown: Fc part
T1 sequence: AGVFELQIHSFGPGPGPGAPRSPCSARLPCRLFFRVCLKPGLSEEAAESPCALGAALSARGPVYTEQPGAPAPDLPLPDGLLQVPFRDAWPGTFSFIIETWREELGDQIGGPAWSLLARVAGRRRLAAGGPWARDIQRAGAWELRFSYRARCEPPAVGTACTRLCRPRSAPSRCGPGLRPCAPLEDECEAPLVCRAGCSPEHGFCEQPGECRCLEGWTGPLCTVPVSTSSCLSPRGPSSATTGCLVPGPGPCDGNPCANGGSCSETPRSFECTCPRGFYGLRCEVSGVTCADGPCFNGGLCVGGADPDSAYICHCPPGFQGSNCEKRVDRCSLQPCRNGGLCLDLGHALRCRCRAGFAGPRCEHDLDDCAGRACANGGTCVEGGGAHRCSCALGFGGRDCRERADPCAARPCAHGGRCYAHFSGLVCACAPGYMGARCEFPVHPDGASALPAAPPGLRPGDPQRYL

T2: human DLL3 expressed on the surface of cells (human, UniProt Q9NYJ7 27-618)
T2 construct: Stably transfected CHO or HEK293 cells; also called huDLL3; hDLL3
T2 sequence: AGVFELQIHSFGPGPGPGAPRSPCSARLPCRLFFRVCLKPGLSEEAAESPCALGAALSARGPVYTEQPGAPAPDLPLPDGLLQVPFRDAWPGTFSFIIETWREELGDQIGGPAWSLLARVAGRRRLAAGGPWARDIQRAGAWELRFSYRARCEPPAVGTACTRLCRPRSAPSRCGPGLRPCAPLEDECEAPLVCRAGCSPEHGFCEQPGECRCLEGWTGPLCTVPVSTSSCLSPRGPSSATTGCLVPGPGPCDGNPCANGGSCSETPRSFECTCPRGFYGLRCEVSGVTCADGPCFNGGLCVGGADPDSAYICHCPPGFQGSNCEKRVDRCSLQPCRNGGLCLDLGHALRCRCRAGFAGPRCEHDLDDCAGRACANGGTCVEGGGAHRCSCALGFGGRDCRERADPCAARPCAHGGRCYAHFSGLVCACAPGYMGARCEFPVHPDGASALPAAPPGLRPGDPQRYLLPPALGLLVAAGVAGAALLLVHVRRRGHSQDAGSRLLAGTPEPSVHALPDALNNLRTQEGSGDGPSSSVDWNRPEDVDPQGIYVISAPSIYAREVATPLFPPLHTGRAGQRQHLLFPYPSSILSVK

B1: SEQ ID NO 72 (peptide)
chain: AETVEFWTCWETTEGYGCNW
modifications: not fully specified (bridges); cysteine pairing not given here
notes: not shown: M13 pIII coat protein
B2: SEQ ID NO 62 (peptide)
chain: AETVEFETCWYLYGREWCVG
modifications: not fully specified (bridges); cysteine pairing not given here
notes: as for B1
B3: SEQ ID NO 74 (peptide)
chain: AETVEFYGCSVTWGGYTCTW
modifications: disulfide 9-18 (inferred); not fully specified (C-terminus)
notes: as for B1
B4: SEQ ID NO 70 (peptide)
chain: AETVEFWSCVVYGDNWTCSS
modifications: not fully specified (bridges); cysteine pairing not given here
notes: as for B1
B5: SEQ ID NO 60 (peptide)
chain: AETVEFYGCQYYGWDYTCAW
notes: as for B1
B6: SEQ ID NO 58 (peptide)
chain: AETVEFYGCSVNADGWTCSW
notes: as for B1
B7: SEQ ID NO 67 (peptide)
chain: AETVEFYGCDLWKGWTVCGY
modifications: not fully specified (bridges); cysteine pairing not given here
notes: as for B1
B8: SEQ ID NO 75 (peptide)
chain: AETVEFYNCWYKMGWYVCWS
modifications: disulfide 9-18 (inferred); not fully specified (C-terminus)
notes: as for B1
B9: SEQ ID NO 66 (peptide)
chain: AETVEFYGCWWDAYGSTCTW
modifications: not fully specified (bridges); cysteine pairing not given here
notes: as for B1
B10: SEQ ID NO 59 (peptide)
chain: AETVEFYGCYGEQEQWTCLW
notes: as for B1
B11: SEQ ID NO 63 (peptide)
chain: AETVEFMRCYPWWYGPMCVR
modifications: not fully specified (bridges); cysteine pairing not given here
notes: as for B1
B12: SEQ ID NO 55 (peptide)
chain: AETVEFDYCYGDVEEWTCVY
notes: as for B1
B13: SEQ ID NO 68 (peptide)
chain: AETVEFRYCTHTQTYVQCQD
modifications: not fully specified (bridges); cysteine pairing not given here
notes: as for B1
B14: SEQ ID NO 71 (peptide)
chain: AETVEFWSCQLGSGWWTCAW
modifications: not fully specified (bridges); cysteine pairing not given here
notes: as for B1
B15: SEQ ID NO 76 (peptide)
chain: AETVEFCRAYSNWFYIC
modifications: disulfide 7-17 (inferred); not fully specified (C-terminus)
notes: as for B1
B16: SEQ ID NO 57 (peptide)
chain: AETVEFYGCKWDWKGWTCAW
notes: as for B1
B17: SEQ ID NO 64 (peptide)
chain: AETVEFWGCLGMGYDRTCWW
modifications: not fully specified (bridges); cysteine pairing not given here
notes: as for B1
B18: SEQ ID NO 54 (peptide)
chain: AETVEFYGCRGGDGEWTCVW
notes: as for B1
B19: SEQ ID NO 69 (peptide)
chain: AETVEFWGCNLDWYGWTCWW
modifications: not fully specified (bridges); cysteine pairing not given here
notes: as for B1
B20: SEQ ID NO 56 (peptide)
chain: AETVEFYGCETYSGGWTCLW
notes: as for B1
B21: SEQ ID NO 73 (peptide)
chain: AETVEFWGCTGGAWEYTCWW
modifications: disulfide 9-18 (inferred); not fully specified (C-terminus)
notes: as for B1
B22: SEQ ID NO 65 (peptide)
chain: AETVEFWTCWTVYGKSSCWD
modifications: not fully specified (bridges); cysteine pairing not given here
notes: as for B1
B23: SEQ ID NO 53 (peptide)
chain: AETVEFDGCKGDWYEWTCWW
notes: as for B1
B24: SEQ ID NO 61 (peptide)
chain: AETVEFYGCWGNYNDYTCSW
notes: as for B1
B25: PepSP1489 (peptide)
peptide: Ac-AETVEFWWCNGNSENWTCTWGG-{Ttds″-K(Ttds-Ttds-PEG3)}
modifications: disulfide 9-18 (inferred); also: dimer linked via PEG4-DBCO
notes: also called PspSP1489
B26: PepSP1487 (peptide)
peptide: Ac-AETVEFWWCNGNSENWTCTWGG-{Ttds″-K(PEG3)}
modifications: disulfide 9-18 (inferred); also: dimer of two copies, carries PEG4-DBCO
notes: also called PspSP1487
B27: PepSP1462 (peptide)
peptide: Ac-AETVEFWWCNGNSENWTCTWGG-{Ttds-K(PEG4-DBCO)-NH2}
modifications: disulfide 9-18 (inferred)
notes: also called PspSP1462
B28: PepSP1488 (peptide)
peptide: Ac-AETVEFWWCNGNSENWTCTWGG-{Ttds″-K(PEG4-PEG3)}
modifications: disulfide 9-18 (inferred); also: dimer linked via PEG4-DBCO
notes: also called PspSP1488

The target in one assay is T1, recombinant DLL3 ectodomain (rhDLL3-Fc). Briefly: phage ELISA on rDLL3-Fc. In general terms: In an ELISA, binding on a coated surface is turned into a signal by an enzyme label.
Method: The pools of phages obtained after each round of selection were tested by Phage-ELISA for their binding to rDLL3-Fc and counter-screened on hIgG-Fc. Briefly, proteins were immobilized on NUNC-Maxisorp ELISA plates. Then the plates were washed and blocked. 100 μl of pre-blocked phages were added to the blocked plate and incubated for 1 hr at room temperature. Anti-M13 HRP conjugated mAb were added and the plates were read on a Multiskan Ascent (Thermo) Elisa reader at A370 nm after the addition of TMB (Sigma).
B1: the binding result is “binds”.

For B2, the binding result is recorded as “binds”.

Consider B3, for which the binding result is recorded as “binds”.

Consider B4, for which the binding result is listed as “binds”.

Take B5: the binding result was “binds”.

Regarding B6, the binding result is “binds”.

B7: the binding result is reported as “binds”.

Regarding B8, the binding result is “binds”.

For B9, the binding result is “binds”.

For the molecule B10, the binding result is “binds”.

Consider B11, for which the binding result is recorded as “binds”.

In the case of B12, the binding result is given as “binds”.

B13: the binding result was “binds”.

As to B14, the binding result is listed as “binds”.

On to B15, for which the binding result was “binds”.

Consider B16, for which the binding result is on record as “binds”.

With B17, the binding result is listed as “binds”.

As to B18, the binding result was “binds”.

On to B19, for which the binding result was “binds”.

Regarding B20, the binding result is on record as “binds”.

For the molecule B21, the binding result is on record as “binds”.

B22: the binding result was “binds”.

As to B23, the binding result is on record as “binds”.

Turning to B24, the binding result is recorded as “binds”.

Another assay concerns the target T2, human DLL3 expressed on the surface of …. Put plainly: phage cell ELISA/FACS on DLL3-expressing cells.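 Also: phages incubated 1 h at room temperature with cells overexpressing human DLL3, read by flow cytometry fluorescence, then fixed-cell ELISA with anti-M13-HRP at A370 nm, parental cells alongside.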
Method: The pools of phages were also screened for their binding to cells overexpressing human DLL3 on their surface. Cells were detached, counted and re-suspended at 1.8×10⁶ cell/ml in FACS buffer containing 2% FBS. Pre-blocked phages were then added to the cells and incubated for 1 hr at room temperature. […] Cells were then washed and re-suspended into FACS buffer. Fluorescence was acquired using a flow cytometer (FACS Canto/Becton Dickinson).
Phage clones with signal higher than four-fold above the background were further tested for their binding to DLL3 on the surface of cells expressing DLL3 by cell ELISA. Briefly, parental cells and cells overexpressing DLL3 were plated on 96 well plate the day before the assay. The cells were then fixed and washed before the addition of pre-blocked phages as previously described. The cells were then washed and anti-M13-HRP was added. The signal was measured using a Multiskan Ascent (Thermo) ELISA reader at A370 nm.
Turning to B1, the binding result is recorded as “binds”.

As to B2, the binding result was “binds”.

With B3, the binding result is “binds”.

With B4, the binding result is on record as “binds”.

In the case of B5, the binding result is given as “binds”.

In the case of B6, the binding result is listed as “binds”.

For B7, the binding result was “binds”.

On to B8, for which the binding result was “binds”.

Take B9: the binding result is recorded as “binds”.

For B10, the binding result was “binds”.

As to B11, the binding result is listed as “binds”.

For the molecule B12, the binding result is given as “binds”.

On to B13, for which the binding result was “binds”.

Take B14: the binding result is given as “binds”.

As for B15, the binding result is “binds”.

As to B16, the binding result is listed as “binds”.

For the molecule B17, the binding result is listed as “binds”.

As for B18, the binding result was “binds”.

Consider B19, for which the binding result is reported as “binds”.

In the case of B20, the binding result is listed as “binds”.

Turning to B21, the binding result is recorded as “binds”.

For B22, the binding result is “binds”.

With B23, the binding result was “binds”.

With B24, the binding result is “binds”.

The next assay addresses T1, recombinant DLL3 ectodomain (rhDLL3-Fc). Briefly: SPR (Biacore), biotinylated rhDLL3-Fc on SA chip. In general terms: SPR reads the build-up and loss of mass on a sensor chip optically.
As for B25, the dissociation constant (Kd) was found to be 3.3 nM, the koff was 0.00037 s⁻¹ and the on-rate constant (kon) was 110000 M⁻¹ s⁻¹.

Consider B26, for which the Kd turned out to be 5.5 nM, the koff was found to be 0.00042 s⁻¹ and the kon was 76000 M⁻¹ s⁻¹.

For B27, the Kd worked out at 6.3 nM, the dissociation rate constant (koff) was 0.0014 s⁻¹ and the kon came to 230000 M⁻¹ s⁻¹.

For the molecule B28, the Kd is 2.6 nM, the koff was 0.00031 s⁻¹ and the on-rate (kon) is 120000 M⁻¹ s⁻¹.

The term Kd denotes the equilibrium constant for the complex coming apart. The term koff denotes the rate constant with which the complex falls apart. The kon is a measure of how fast the partners come together.
